Test [1] has as its target Human cytokeratin-8 (CK8) at the cell surface of human cancer cell lines (human) (UniProt P05787). Nature of the test: flow cytometry, HT29 cells, MAb 5 ug/mL.
Test [2] has the same target. Nature of the test: flow cytometry, MCF-7 cells, MAb 5 ug/mL.
Test [3] has the same target. Put plainly: flow cytometry, ISRECO-1 cells, MAb 5 ug/mL.
Test [4] shares this target. Nature of the test: flow cytometry, ISRECO-2 cells, MAb 5 ug/mL.
The target is the same in test [5]. Put plainly: flow cytometry, ISRECO-3 cells, MAb 5 ug/mL.
Test [6] has the same target. Nature of the test: flow cytometry, HCT116-/- cells, MAb 5 ug/mL.
The target is the same in test [7]. Nature of the test: flow cytometry, HCT116 +/+ cells, MAb 5 ug/mL.

Human cytokeratin-8 (CK8) at the cell surface of human cancer cell lines (human), sequence (P05787 whole entry): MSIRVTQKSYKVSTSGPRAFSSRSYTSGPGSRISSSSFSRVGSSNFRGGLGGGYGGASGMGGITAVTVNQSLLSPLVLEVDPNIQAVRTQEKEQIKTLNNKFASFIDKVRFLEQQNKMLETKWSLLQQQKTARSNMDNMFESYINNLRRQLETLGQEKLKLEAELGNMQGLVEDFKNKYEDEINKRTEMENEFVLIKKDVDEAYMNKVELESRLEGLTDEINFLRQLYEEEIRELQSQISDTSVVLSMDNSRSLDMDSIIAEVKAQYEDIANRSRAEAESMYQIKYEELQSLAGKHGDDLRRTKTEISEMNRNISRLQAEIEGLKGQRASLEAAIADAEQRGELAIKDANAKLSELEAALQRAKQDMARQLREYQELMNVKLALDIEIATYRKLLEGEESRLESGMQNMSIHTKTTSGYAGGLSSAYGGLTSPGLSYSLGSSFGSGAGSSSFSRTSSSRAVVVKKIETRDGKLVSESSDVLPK

Consider “1E8 antibody (commercially available antibody ab28050, abcam)”, for which the % (labelled cells) in test [1] is 30%; in test [2], 52%; in test [3], 45%; in test [4], 23%; in test [5], 41%; in test [6], 38%. Moreover, in test [7], the % (labelled cells) turned out to be 35%. In addition, the IFM was 418 in test [1]; 462 in test [2]; 562 in test [3]; 424 in test [4]; 402 in test [5]; 530 in test [6]. This substance displayed an IFM in test [7] of 554.
Turning to “M20 antibody (commercially available antibody C5301, Sigma)”, the % (labelled cells) in test [1] amounted to 17%; in test [2], 66%; in test [3] it was 50%; in test [4], 26%; in test [5], 33%; in test [6], 28%. The % (labelled cells) in test [7] came out at 29%. Further, the IFM in test [1] was 497; in test [2], 476; in test [3], 553; in test [4], 473; in test [5] it was 541; in test [6], 517. Further, the IFM in test [7] came to 527.

(Values after patent publication US20180237508A1.)
